Substrate: O=C(O)C(=O)Cc1ccc(O)cc1
Experiment: purified protein, by the assay type
Conditions: other: substrate HPP varied between 10 and 400 µM; SEQ ID No. 32; pH 7.8

B1: Arabidopsis thaliana HPPD "SEQ ID No. 32" (Arabidopsis thaliana) (protein)
chain: MGHQNAAVSENQNHDDGAASSPGFKLVGFSKFVRKNPKSDKFKVKRFHHIEFWCGDATNVARRFSWGLGMRFSAKSDLSTGNMVHASYLLTSGDLRFLFTAPYSPSLSAGEIKPTTTASIPSFDHGSCRSFFSSHGLGVRAVAIEVEDAESAFSISVANGAIPSSPPIVLNEAVTIAEVKLYGDVVLRYVSYKAEDTEKSEFLPGFERVEDASSFPLDYGIRRLDHAVGNVPELGPALTYVAGFTGFHQFAEFTADDVGTAESGLNSAVLASNDEMVLLPINEPVHGTKRKSQIQTYLEHNEGAGLQHLALMSEDIFRTLREMRKRSSIGGFDFMPSPPPTYYQNLKKRVGDVLSDDQIKECEELGILVDRDDQGTLLQIFTKPLGDRPTIFIEIIQRVGCMMKDEEGKAYQSGGCGGFGKGNFSELFKSIEEYEKTLEAKQLVG
Q: For B1, which Km is on record?
A: Its Km is 6.3 µM.
